We go through 2 substances from publication PMC5868845.

The experiment concerns the target 4F2hc (UniProt P08195). Kind of experiment: co-IP from transfected 293FT, western blot. The settings on record: reference: Flag-NT wild type. (In western blotting, separated proteins are transferred to a membrane and probed.)

For “Girdin NT domain, 1-256 (from UniProt Q3V6T2) Flag-NT S233A”, the “binding against the reference” value (sites S233) was “lost”.

Consider “Girdin NT domain, 1-256 (from UniProt Q3V6T2) Flag-NT S237A”, for which the “binding against the reference” value (sites S237) is reported as “lost”.
